Measured values reported in patent publication US10556936B2, “Immunogenic proteins and fragments thereof from allergenic mites” (ALK-ABELLÓ A/S, priority 2016, dated 2020).

B1: 20 (protein, listed as Dermatophagoides pteronyssinus)
chain: NWQMVWQDEFNGGHLDQNHWEFETGGGGWGNNELEFYTANRSQNVRVENGHLVIDVRVESYGGRDFTSGRIHSKQAWAYGKFEARARLPSGHHLWPAIWMFPRDSKYGPWAASGEIDIMEYRGDVHDKIEGTIHYGGQWPNNIYTGSGPHHFNVDFSKDFHNFAVEWDTKEIRWYMDGNKYFSVNIDRNMWSGKGNNPYNKNGQPFDQPFRWILNVAVGGNFFGPGPYVTPDQARHWQKHTMEIDYVRVYQWR
B2: 16 (protein, listed as Dermatophagoides pteronyssinus)
chain: MSKPIFYYHPFSGPCRTVSTVAKILNVDMEMKKLDLLTKEHLNPEFLKVNPFHKVPTFVDSDGFVVDESRVIAMYLVESRKPDSFLYPKNDLKKRIQIDRWLHYDINLSTTISAPMFCVFRGHQVQDYQVEQGKETLKTLDGVMQSFEGKFLTGADQFTLADIAMYFSLNTMEVYPKYFKFDDYPNLKSWYHRVAEALKQYDTEGTIPKAIETMKQFIQQRAAEAEKH
B3: 38 (protein, listed as Dermatophagoides farinae)
chain: QSRDRNDKPYRIVCYWGTWAFYRPASGKFQAENVNPNLCTHIMYGFAKLQNNKIALYDPDLDDGDEDWNSGLQWGHGMIRRMVNLRTYNPHLTTMISLGGWNEGSDKYSIMVRDPASRKIFIQSVLHLLAEFDLDGLDFDWEYPAMQASGDSDRKPGRAEDKEDFVTLLRELHEAFQPHGYVLSSAVSAGKPTIDRAYNIPEVSKYLDFINLMSYDYHGGWESHTGHNAPLNSYKNANELDKEFTVTYSVEYWLNHGVDPKKLVLGIPLYGRTFTLAGSEHGIGAPTIGKGGESGTITRTIGMLGYNEICTMIKQGWQLYRDEIERIPYAVHANQWIGYDDRESVNEKLNLLMAKHLGGAMVWSIDTDDFVGNCVGVKYPLLRSISKKLNNVDGPDPDIKRYHYHTSTAKPHTDGTTSTHHDHKTTTTKHHKTTQPHHKTTQPHHTQTITTTTERPHGKFQCHQAGFFADPENPRKFHQCVDFGGHLKDYEFMCGEGTHYDEKLHICVR
B4: 12 (protein, listed as Dermatophagoides pteronyssinus)
chain: MSISAHGGGLVNGIAGMENKFTVFTSGKPVSGLTVAFEGPTKPEINFNSTKDGSVDVGYIPKAGGQYKIHIKYEGKEIVGSPFKCNISGDESTHRKLTEKVKVGGPNISTGKVNQDNQLTIDCKEAGITGGISFAMEGPAKVEVSFRNNNDGTITVIYKPPTPGDYKLHLKFNDIHLPGSPYPIVVSA
B5: 24 (protein, listed as Dermatophagoides pteronyssinus)
chain: DPVQQRPTLRGVTVRVGPFVKENNGKFEGFIPDLVQAISEKVGFDYTLYLSPDGRYGNVISDGNVTGMIGEVYNKKADFAAADLTMTEARENYITFTEPFMINQLAALIRREDAEGLNTLEDLAKAQETFPKRKRIVLGTLRNGATNYFLSKSDDPLAKKIYEQIKADDQSVVKSISEGVERVDKQGGYAFIMESASAEHEIANNCKLTMLLDWRNLFPRKYAFALPKDSPYLEHFNNAIKQLNSEGKIAELRRKYWANNCAENKTKDDKN
B6: 3 (protein, listed as Dermatophagoides pteronyssinus)
chain: MAIDGKYQMESSEHFEEFVKEMGLDVDMTNVDLSKTSTMEICKDGDVYHIKSETAGIAHEIKFKVGEEFEDDMNGHKFKNVVTMECDNKMVQKKTSADGGKVVNVVREFTDAGCTVKSTYNTVTWTRVYKRM
B7: 40 (protein, listed as Dermatophagoides pteronyssinus)
chain: KSAPEGCFRAAVLDHVHQTDARHLSNTAKIIDLNFKVYEDAAALAKKQGADIIVFPENGLIYSILSREKADEFASDIPDAEVNACTLDSKFVYNRLACLAQKHQMFVVADLIDRKSCEELGINNVSDSCPADKKFLFNTAVLFDRQGKLLGRYHKMHLFGEISMNPPPKPELLVIDTELGRLGMQICFDMIFKTPGYLLAQENKFDTMLFPTWWFDESPMLSSSQYQMAWAFGNNVTLLASNIHRIEVGSRGSGIYVGPHRTLAAALYDDSVERLVLANVPIKPKETDQSACPLDSEIIEVPQQIPIPKSVKYHHQNLNLKDVTLLQLSSNESEVHLCHKGVCCQFEYRLAMKDQPQESWVDRVPLLANMLHYLTPEERYYLLIANRTRPGAYPWSEEFCAVVVCPSSRWNFGKMQKDCSKIGSNQELSSRFVHAKLRGKFSEDTAVYPSAVGSKNQLIYPENKWKFWKVNVPNEPEYFIELGAKDNSESRAMELGALVLYGRNYNRDPRYEQKALPIN
B8: 31 (protein, listed as Dermatophagoides pteronyssinus)
chain: MAKFNYLPVDVQEELRNTANAIVSVGKGILAADESTGTIGKRFADINVENVEQNRQAYRQLLFYSEGIEQYISGVILFDETVYQKDDKGVPFPELLKKKGIIPGIKVDTGVVTLQGTNGESTTQGLDNLTKRCQEYYNQGCRFAKWRCVLKIGQDEPSSLAIVENANVLARYASCCQQARIVPIVEPEILPDGDHNLERCQKVTETVLAAVYKALNDHHVYLEGTLLKPNMVTPGQSCPQKASPQEVAQATVTALQRTVPAAVPGIVFLSGGQSEEEASVNLNAINQYQGKKPWALSFSYGRALQASALRAWQGKPENIGAGQKELLQRAKANVLAHKGQYVAGSIPSLASAKSNFVAQHKY
B9: 4 (protein, listed as Dermatophagoides pteronyssinus)
chain: QVYCNGAAIVSAARSQIGVPYSWGGGGIHGKSRGIGEGANTVGFDCSGLAQYSVYQGTHKVLARVASGQYSDPKCHHVAYGSHQPGDLVFFGNPIHHVGIVSAHGRMINAPHTGTNVREENIWSDHIANVARCW
B10: 44 (protein, listed as Dermatophagoides pteronyssinus)
chain: VVIKVENLPEQCDYTQCPKWSKDDINVHLVAHTHDDVGWLKTVEQYYYGLKNDIQRAGVQYILDTMIEELIRNKDRRFIYVEIAFFWKWWQEQNEEQRMIVKELVRTGQLEFINGGWSMPDEAATHYNSLIDQSTWGLRQLNDTFGRCGHPKVTWQIDPFGHSKEMANLYAQMGYDALFFARQDYQDRENRMSNRTLEHVWQGSDDLGEIGDIFTGMMFSGYGPIEFNWDITNGPEDAVVDNPESEEYNVPDKIRRFVEKAKYFGQFYATNHFMFPMGTDFQYTDAHTWFKNLDKLINAVNKAGKGVRAFYSTPSCYAHALYEQNRTWTTKTDDFFPYASDEHAYWTGYFTSRPAIKRMERIGNNLLQACKQLDVLADNNGRFEMNLTKMREAMGVMQHHDAVTGTEKQHVAFNYAKMLDSAMLQCRHIINESYKKLLPKSSTSEHEFCPYLNISSCPTTEMGESRIIYLYNPLGHRLINHTVRLPIKNGYYYRIQDQNNQSVPSVLVPIPEFVQKIPGRKSVATKELVFRVPVIEPLGITTMYMYVDKNEQPNSAIEIKGENPDDNDDKSKWLVLTKNLIVEFYSNGTISRISIDKLHQSISISNEFRLYHGAGGTGRHSGAYIFRPNEQKTFPVTNKIKSTFFIDRKYHIVQEVHQQFDSSFVGQIIRMDKYNDNVEFDFVVGPIPVNDQIGKEIIASYKTDLENDETFYTDANGRQMLRRRWNYRPSWKYNVQEPISGNYYPVNSRIAIRDEKQSLQMTIMTDRSQGGSLSPEQINGSIDIMIHRRLLHDDYFGVGEALNEPGVDGHGLVIRGKHLLLLNSIKQSASEHRPLAQQMFMEPIISFTSIESNKQAEKQSNQYIGLNNDLPSNVHLLTLEQWHSKRYLLRLEHFYQSNEDTELSKPVKLSLRHLFKSFEIIAVEELTLGANQPISSLKNRLHYRYNRPLEQRQQQQSSLLLDDPKIEGENFDIHLSPMQIRTFLIDIKRN
B11: 18 (protein, listed as Dermatophagoides pteronyssinus)
chain: QSLFVDYNDYSCGSSQNETNELIQEFKIFKKNINGNENFKKINDFIEKARLFRDNAAKQMLEIDQQLLTLNVIQISQRIKLENNKIQCEKLTKFSELLSMQLLAYEVGMFEFAEEIDPNIDFDRKMKNFLDETSRLFNLAEFEKLEKKFRNATSIEKLKNYIDGELVALNDYINEFLKDIIMSEFTVQSRYYLNFSIEDQVQIDSTLMTFSALKILLNDLKDYLEHLDN

Experiments:
[1] = test system: HDM specific T-cell lines from HDM allergic donors; assay: T cell reactivity of protein: IL-5/IFNg FluoroSPOT or 72 h T cell proliferation in HDM specific T-cell lines (Example 2); type: cell-based, human; conditions: responding donors of tested HDM allergic donors
Excerpt: PBMCs from European HDM-allergic individuals were recruited in the Copenhagen region (defined by clinical history of allergy to house dust mite and specific IgE to group 1 and group 2 major allergens from Der p and/or Der f and with measured specific IgE (CAP) >0.7 kU/L towards Der p/f 1 or Der p/f 2. In addition, PBMCs from 10 US HDM-allergic individuals were recruited in San Diego (defined by Der p extract IgE titers greater than 0.35 kUA/L). PBMCs were isolated from whole blood by density gradient centrifugation according to manufacturers' instructions (Ficoll-Hypaque, Amersham Biosciences, Uppsala, Sweden). Der p- and Der f-specific extract IgE titers were determined using the ImmunoCAP system (Thermo Fisher, Uppsala, Sweden). In a separate series of experiments, pooled plasma from 10 European and 10 American HDM atopic individuals from the San Diego region, respectively, was utilized to run 2D immunoblots to elucidate IgE and IgG reactivity towards the proteins, which had at least one peptide with positive T cell response.
T cells reactivity was determined by establishment of HDM specific T-cell lines according to standard methods. In short, PMBCs from HDM allergic donors were cultured for 2-3 weeks in the presence of house dust mite allergen extract. The responses to proteins having SEQ ID NOs 1-44 were assessed by IL-5/IFNg FluoroSPOT (Mabtech FS-0108-10) according manufacturer protocol, (after 2 weeks) or proliferation in a standard 72 h T cell proliferation assay, as described in Henmar H et al., Clin Exp Immunol 2008; 153(3):316-23. (after 3 weeks). In addition these established T cell lines were used for further characterization and epitope mapping.

[2] = test system: basophils in whole blood from HDM allergic donors; assay: Basophil Activation Test (BAT); type: cell-based, human; conditions: responding donors of tested HDM allergic donors; whole blood stimulated 1 h
In short: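 Basophil activation was read by flow cytometry as increased surface activation markers. The stimulus was a 1 h exposure of blood from 14 HDM-allergic donors to test proteins or major mite allergens at graded concentrations (e.g. 1–1000 ng/ml).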

Molecule	% T cell responding donors to protein [1]	% responding donors in BAT Assay [2]
B1	6 of 24	–
B2	3 of 24	–
B3	11 of 27	0 of 8
B4	5 of 24	–
B5	3 of 24	–
B6	1 of 29	0 of 16
B7	15 of 27	0 of 8
B8	6 of 27	0 of 8
B9	8 of 24	–
B10	7 of 24	–
B11	0 of 24	–
